Laboratory results reported in patent US20250215052A1 (UNIVERSITY OF COPENHAGEN, published 2025).
Where no end group is shown, it is not given here.

Target: T1, Protein Interacting with C Kinase-1 (PICK1), purified recombinant (UniProt Q9EP80 1-416)
T1 construct: also called purified PICK1
Experiment: fluorescence polarization competition, tracer 5-FAM-TAT-C5, purified PICK1

T1 sequence (Q9EP80 whole entry): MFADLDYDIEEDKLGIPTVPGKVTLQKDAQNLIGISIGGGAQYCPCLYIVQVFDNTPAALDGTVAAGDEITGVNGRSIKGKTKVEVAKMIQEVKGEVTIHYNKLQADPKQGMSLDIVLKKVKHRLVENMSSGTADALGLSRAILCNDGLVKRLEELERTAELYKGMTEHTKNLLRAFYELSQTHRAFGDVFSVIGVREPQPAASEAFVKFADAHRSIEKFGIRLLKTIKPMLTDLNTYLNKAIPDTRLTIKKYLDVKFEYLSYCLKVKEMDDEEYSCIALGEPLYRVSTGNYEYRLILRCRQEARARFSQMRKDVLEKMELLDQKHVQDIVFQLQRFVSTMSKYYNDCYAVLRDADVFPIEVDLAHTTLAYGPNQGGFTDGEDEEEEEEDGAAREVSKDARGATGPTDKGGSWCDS

B1: MAP-P4-(C5)2 (peptide)
peptide 1: HWLKV
peptide 2: KLALKLALKALKAALKLA
modifications: not fully specified (N-terminus); also: dimer: two HWLKV copies joined at N-termini by NPEG4 linker, MAP peptide conjugated to the NPEG4 linker
notes: also called MAP-peptide
- Fold affinity change (vs TAT-P4-(C5)2): 0.8 fold
- Ki: 5.1 nM
